Measured values: PMC2901902

Experiments:
[1] = molecular target: histone H3 acetylated at lysine 14 in C2C12 chromatin (mouse (endogenous in C2C12)) (UniProt P68433); test: re-ChIP
[2] = molecular target: DPF3b PHD12 with Ala mutation of Glu315 or Asp335; test: ITC

EGFP-DPF3b D263A or F264A mutant showed a fold reduction of co-occupancy (against wild type DPF3b) [1] of 2 to 3 fold.
Work on “histone H3 peptide acetylated at lysine 14 (residues 1–18) (from UniProt P68431 2-19)” yielded a fold reduction in affinity (against wild type PHD12) [2] of 80 to 250 fold.
